Results reported in patent publication US6586187B1, “Methods for solid phase combinatorial synthesis of integrin inhibitors” (Wyeth, priority 1999, dated 2003).
Positions of bridges follow the written chain, without caps; N, C: chain ends. No end group written: not given here.

Assays:
[1] = target: Vitronectin Receptor (αvβ3) (Homo sapiens, UniProt P05106+P06756); experiment: Vitronectin Receptor (αvβ3) Binding Assay; settings: at 100 μM; 125I-Echistatin, 512P5 cell membranes
osteoclasts = experiment: Osteoclast Pitting Assay; assay type: cell-based; settings: neonatal rat osteoclasts on bovine cortical bone slices
Procedure: The assay is conduct ed as described in Murrills and Dempster (1990) Bone 11:333-344. Briefly, 4×4×0.2 mm slices of devitalized bovine cortical bone are numbered, placed in the wells of 96-well culture plates and wetted with 100 ul of Medium 199 containing Hanks salts, 10 mM HEPES, pH 7.0 (Medium 199/Hanks). Bone cell suspensions containing osteoclasts are prepared by mincing the long bones of neonatal rats (Sprague-Dawley , 4-6 days old) in Medium 199/Hanks. 100 uL of the suspension are then plated onto each slice and incubated 30 minutes to allow osteoclasts to adhere. The slices are rinsed to remove non-adherent cells and incubated 24 h in Medium 199 containing Earle's salts, 10 mM HEPES and 0.7 g/L NaHCO3, which equilibrates at pH 6.9 in a 5% CO2 atmosphere. At this pH the adherent osteoclasts excavate an adequate number of resorption pits for assay purposes. Slices are fixed in 2.5% glutaraldehyde and osteoclasts counted following tartrate-resistant acid phosphatase staining. […] Resorption pits are quantified by manually counting.
The experiments are conducted according to a block design with osteoclasts from each animal exposed to each treatment. […] Several parameters are recorded on a “per slice” basis: number of pits, number of osteoclasts, number of pits per osteoclast, number of fibroblast-like bone cells. […] IC50s are calculated for active compounds using dose-response curves.

Sequence of Vitronectin Receptor (αvβ3) (P06756 31-889 limits assumed): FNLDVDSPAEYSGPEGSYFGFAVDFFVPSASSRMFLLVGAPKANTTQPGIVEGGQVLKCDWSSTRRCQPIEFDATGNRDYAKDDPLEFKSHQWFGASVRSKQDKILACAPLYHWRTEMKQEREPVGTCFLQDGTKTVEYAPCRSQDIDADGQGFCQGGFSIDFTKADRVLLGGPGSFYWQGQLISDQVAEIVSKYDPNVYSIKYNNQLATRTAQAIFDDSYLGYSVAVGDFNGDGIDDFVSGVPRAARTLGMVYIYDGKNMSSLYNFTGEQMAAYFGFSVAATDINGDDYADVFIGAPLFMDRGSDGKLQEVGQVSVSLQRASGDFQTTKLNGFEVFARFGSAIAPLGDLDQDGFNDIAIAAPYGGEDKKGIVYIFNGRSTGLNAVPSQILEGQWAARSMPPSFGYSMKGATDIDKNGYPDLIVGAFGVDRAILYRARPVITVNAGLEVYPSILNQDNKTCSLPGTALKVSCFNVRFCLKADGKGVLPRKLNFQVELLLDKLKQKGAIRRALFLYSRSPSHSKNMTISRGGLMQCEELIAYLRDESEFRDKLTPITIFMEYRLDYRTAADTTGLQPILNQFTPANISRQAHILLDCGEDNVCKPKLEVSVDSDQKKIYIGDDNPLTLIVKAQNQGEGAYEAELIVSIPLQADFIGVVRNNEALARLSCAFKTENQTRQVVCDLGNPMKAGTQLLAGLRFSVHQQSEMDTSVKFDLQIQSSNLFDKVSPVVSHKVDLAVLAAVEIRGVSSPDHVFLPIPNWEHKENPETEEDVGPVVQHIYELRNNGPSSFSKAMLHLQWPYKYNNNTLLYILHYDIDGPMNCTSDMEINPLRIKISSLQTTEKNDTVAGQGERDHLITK
Sequence of Vitronectin Receptor (αvβ3) (P06756 891-1048 limits assumed): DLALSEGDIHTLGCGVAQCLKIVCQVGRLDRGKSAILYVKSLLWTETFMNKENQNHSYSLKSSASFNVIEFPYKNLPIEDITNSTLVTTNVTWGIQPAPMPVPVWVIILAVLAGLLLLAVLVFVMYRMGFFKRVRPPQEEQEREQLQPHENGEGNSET
Sequence of Vitronectin Receptor (αvβ3) (P05106 27-788): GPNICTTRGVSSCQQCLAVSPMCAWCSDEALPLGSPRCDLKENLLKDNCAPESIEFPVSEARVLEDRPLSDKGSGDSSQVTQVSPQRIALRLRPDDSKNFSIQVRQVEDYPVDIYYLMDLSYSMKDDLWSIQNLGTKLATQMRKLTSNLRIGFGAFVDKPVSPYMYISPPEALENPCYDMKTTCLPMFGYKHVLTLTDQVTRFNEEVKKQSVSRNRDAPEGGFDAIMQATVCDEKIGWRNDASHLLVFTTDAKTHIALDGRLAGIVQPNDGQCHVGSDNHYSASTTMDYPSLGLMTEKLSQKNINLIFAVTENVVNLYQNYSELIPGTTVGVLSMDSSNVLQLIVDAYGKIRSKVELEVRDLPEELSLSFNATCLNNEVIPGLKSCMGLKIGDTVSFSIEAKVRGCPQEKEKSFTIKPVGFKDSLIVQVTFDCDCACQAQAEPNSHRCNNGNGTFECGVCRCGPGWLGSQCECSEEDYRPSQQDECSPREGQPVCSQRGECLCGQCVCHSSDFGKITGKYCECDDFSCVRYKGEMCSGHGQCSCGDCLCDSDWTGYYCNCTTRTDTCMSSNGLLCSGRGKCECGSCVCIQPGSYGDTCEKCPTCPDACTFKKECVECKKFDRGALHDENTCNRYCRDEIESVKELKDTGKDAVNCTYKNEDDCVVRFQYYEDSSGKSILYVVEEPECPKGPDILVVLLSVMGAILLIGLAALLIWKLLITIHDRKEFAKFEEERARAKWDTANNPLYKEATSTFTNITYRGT

| ability to inhibit avb3 binding [1] | Substance | osteoclast inhibitory activity (osteoclasts) |
| --- | --- | --- |
| inactive at 100 μM | GRGESP: reference peptide, structure given by standard single letter designation for amino acids | – |
| – | Calcitonin: reference compound of the osteoclast pitting assay; used as anti-resorptive in the clinic (CGNLSTCMLGTYTQDLNKFHTFPQTSIGVGAP-NH2; disulfide 1-7; ends not checked; UniProt P01257 85-116, looked up) | significant osteoclast inhibitory activity |
